Results as given in doi:10.1101/857730.

Target: Photorhabdus luminescens TcdA1 (TcA subunit of the Tc toxin) (P. luminescens) (UniProt Q9RN43)
Experiment: cryo-EM structure

Photorhabdus luminescens TcdA1 (TcA subunit of the Tc toxin), Q9RN43 1-2516
stoichiometry N: 5
